From paper PMC9980222

Tests used:
[1] = molecular target: BG505 SOSIP.664-His trimer (HIV-1 isolate BG505 (Clade A)); test: SPR
[2] = molecular target: B41 SOSIP.664-His trimer (HIV-1 isolate B41 (Clade B)); test: native gel or EMSA
[3] = molecular target: B41 SOSIP.664-His trimer (HIV-1 isolate B41 (Clade B)); test: negative-stain electron microscopy
[4] = molecular target: BG505 SOSIP.664-His trimer (HIV-1 isolate BG505 (Clade A))

In the case of PGT151 Fab, the KD1 (site 1, heterogeneous-ligand model) [1] is reported as < 0.1 nM, the KD2 (site 2, heterogeneous-ligand model) [1] is reported as 27 nM and the Kd [1] is reported as 2 nM. It also gave a Sm1 (stoichiometry of site 1, heterogeneous-ligand model) (Fab molecules per trimer) [1] of 1.2, a Sm1+Sm2 (cumulative stoichiometry, heterogeneous-ligand model) (Fab molecules per trimer) [1] of 1.9 and a Sm2 (stoichiometry of site 2, heterogeneous-ligand model) (Fab molecules per trimer) [1] of 0.7. The koff [1] was 0.00018 s⁻¹, the koff1 (site 1, heterogeneous-ligand model) [1] was < 1e-05 s⁻¹ and the koff2 (site 2, heterogeneous-ligand model) [1] was 0.00076 s⁻¹. The kon [1] was 87000 M⁻¹ s⁻¹, the kon1 (site 1, heterogeneous-ligand model) [1] was 140000 M⁻¹ s⁻¹ and the kon2 (site 2, heterogeneous-ligand model) [1] was 28000 M⁻¹ s⁻¹. It also gave a stoichiometry N (Fab molecules per trimer) [1] of 1.9.
B41 SOSIP.664-His trimer (complex) was tested, and the stoichiometry N [2] was 3 and the stoichiometry N [3] was 3.
For PGT151 IgG (antibody), the IC50 of neutralization of BG505 Env-pseudotyped virus, TZM-bl assay [4] was 0.043 µg/mL.
